Data published in patent US12612465B2, “Formulations comprising PCSK9 specific monoclonal antibodies” (Amgen Inc., priority 2012, dated 2026).
Entries after “also recorded” stand apart in the source; their conditions may differ.

Tests used:
human PCSK9 = target: T1, human PCSK9 (Homo sapiens, UniProt Q8NBP7, E620G/G670E/V474I); test: BIAcore solution equilibrium binding assay; settings: hPCSK9, solution equilibrium
T1 construct: made in house
Text: Flow cell 3 was used as a background control. […] Although cPCSK9 has lower protein concentration observed from KinExA assay and SDS-gel, its concentration was not adjusted here since the concentration of cPCSK9 was not used for calculation of KD. […] FIG. 5B depicts the results from the solution equilibrium assay at three different hPCSK9 concentrations for hPCSK9. FIG. 5C depicts a similar set of results for mPCSK9. FIG. 5D depicts the results from the above biacore capture assay.

PCSK9 [1] = target: T2, PCSK9 (Homo sapiens, UniProt Q8NBP7); test: Phase 1b ascending multiple dose study in hyperlipidemic subjects on a statin; type: in vivo
T2 construct: endogenous in cells; host or cells: human subjects, in vivo
T2 sequence (Q8NBP7 153-692): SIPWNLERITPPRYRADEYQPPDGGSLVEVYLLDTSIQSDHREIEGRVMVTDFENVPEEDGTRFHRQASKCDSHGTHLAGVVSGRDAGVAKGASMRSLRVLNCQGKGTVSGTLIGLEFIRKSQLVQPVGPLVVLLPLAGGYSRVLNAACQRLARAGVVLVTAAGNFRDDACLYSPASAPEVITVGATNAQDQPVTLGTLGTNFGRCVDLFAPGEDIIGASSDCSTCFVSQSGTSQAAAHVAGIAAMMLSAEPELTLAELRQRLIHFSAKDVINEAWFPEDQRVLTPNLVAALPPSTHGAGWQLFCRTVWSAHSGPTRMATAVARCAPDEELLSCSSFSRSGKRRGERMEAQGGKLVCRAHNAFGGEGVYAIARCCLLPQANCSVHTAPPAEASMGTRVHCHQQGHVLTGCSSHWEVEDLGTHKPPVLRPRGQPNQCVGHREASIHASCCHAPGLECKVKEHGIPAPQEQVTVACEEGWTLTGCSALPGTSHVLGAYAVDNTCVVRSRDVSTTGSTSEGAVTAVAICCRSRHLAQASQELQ
Experimental: The study had seven cohorts. […] Cohort 6 was conducted in hypercholesterolemic subjects on high doses of a statin (atorvastatin 80 mg or rosuvastatin 40 mg).

PCSK9 [2] = target: T2, PCSK9; test: 12 week study in heterozygous familial hypercholesterolemia (Example 22); type: in vivo; settings: HeFH, preliminary
Experimental: This study is a double-blind, randomized, stratified, placebo-controlled clinical trial evaluating the safety, tolerability, and efficacy of monocloncal antibody 21B12 in subjects having a diagnosis of HeFH. A total enrollment of 150 subjects is planned. […] Randomization will be stratified by screening LDL-C level (<130 mg/dL [3.4 mmol/L] vs ≥130 mg/dL) and ezetimibe use at baseline (yes vs no). Randomization should occur within 5-10 days of the screening LDL-C evaluation used to determine eligibility. Monoclonal antibody, 21B12, and placebo will be blinded. Study visits are at weeks 2, 4, 8, and 12. […] The end-of-study (EOS) visit and the last evaluation of lipids is at week 12.
Males and females, ≥18 to ≤75 years of age, and with a diagnosis of heterozygous familial hypercholesterolemia by the diagnostic criteria of the Simon Broome Register Group (SBRG), are eligible for this study. For enrollment, subjects must be on an approved statin, with stable dose(s) for all allowed (eg, ezetimibe, bile-acid sequestering resin, stanols, or regulatory-approved and marketed niacin (eg, Niaspan or Niacor)) lipid-regulating drugs for at least
4 weeks before LDL-C screening and, in the opinion of the investigator, not requiring uptitration. Fasting LDL-C must be ≥100 mg/dL (2.6 mmol/L) and fasting triglycerides ≤400 mg/dL (4.5 mmol/L) by central laboratory at screening.

PCSK9 [3] = test: Serum lipids after a single subcutaneous dose in cynomolgus monkeys; type: in vivo, cynomolgus monkey; settings: 0.5 mg/kg single SC
Text: Briefly, naive male cynomolgus monkeys were acclimated to their environment for at least 2 weeks prior to experimentation. Animals were randomized into treatment groups based on a pre-screen of their serum TC, HDL-C, LDL-C, and triglyceride levels, and their body weight. After 1 week, animals were fasted overnight, and bled from the peripheral vasculature (cephalic or saphenous vein), for measurement of baseline serum lipid levels at a time point designated T=0. […] Fasting blood samples were then collected from animals at designated time points over a 45 day period.
At specified time points, blood was collected from animals under overnight fasting conditions from the peripheral vasculature (cephalic or saphenous vein). Whole blood was allowed to coagulate for 30 minutes at room temperature. Following centrifugation at 3,000 rpm for 20 minutes, serum was collected. Direct serum cholesterol analysis was performed using the Cobas Integra 400 analyzer (Roche Diagnostics Inc, Indianapolis, Ind.). Apolipoprotein B serum levels were determined at specified time points (day 0, 3, 6, 15, 24 and 33) by Anilytics, Md., with the following methodology. A 17 μL aliquot of the sample (no preparation) was used for analysis with a Hitachi 717 Analyzer using a 6 points standard curve. If the initial value of the sample was higher than the standard curve linearity, then the sample was diluted and repeated with the result multiplied by the appropriate dilution factor. The reagents for the assay (APO-B Reagent Kit #86071, Antibody Set #86060, Control Set #86103) were obtained from DiaSorin (Stillwater, Minn.).
A statistical model that considers baseline as a covariate and treatment group as a fixed effect was fit to the log transformed response at each time point for LDL-C, HDL-C, TC, and triglycerides. Tukey's multiple comparison correction was applied to adjust the pair wise comparisons at each time point. The statistical significance was evaluated at alpha=0.05 using adjusted p-values.

[4] = cohorts 1-5, end of dosing interval
[5] = 350 mg Q4W SC, end of dosing interval

T1 sequence (Q8NBP7 153-692 V474I/E620G/G670E): as the sequence (Q8NBP7 153-692) above, with V322I, E468G, G518E counted along it

B1: 21B12: human anti-PCSK9 monoclonal antibody, light/heavy variable region SEQ ID NO 23/49 (antibody, listed as Homo sapiens, V domains shown)
VH: QVQLVQSGAEVKKPGASVKVSCKASGYTLTSYGISWVRQAPGQGLEWMGWVSFYNGNTNYAQKLQGRGTMTTDPSTSTAYMELRSLRSDDTAVYYCARGYGMDVWGQGTTVTVSS
VL: QSALTQPASVSGSPGQSITISCTGTSSDVGGYNSVSWYQQHPGKAPKLMIYEVSNRPSGVSNRFSGSKSGNTASLTISGLQAEDEADYYCNSYTSTSMVFGGGTKLTVL
Question: Which Kd (human PCSK9) does the source give for B1 here?
Answer: 0.015 nM

Question: What about the “suppression of PCSK9” value (PCSK9 [1]; cohort 3 (140 mg Q2W SC 3 times), preliminary) of the same molecule?
Answer: Near-complete suppression of PCSK9

Question: What about the “maximum reduction in LDL-C versus placebo” value (PCSK9 [1]; cohort 6, high-dose statins) of the same molecule?
Answer: 73%

Question: What about the “mean reduction in LDL-C vs placebo” value (PCSK9 [1]; cohort 6, high-dose statins, end of dosing interval after 3 biweekly doses) of the same molecule?
Answer: 63%

Question: And the “maximum LDL-C reduction versus placebo” value (PCSK9 [1]; cohort 7 heFH)?
Answer: 70%

Question: What about the “maximum reduction of ApoB versus placebo” value (PCSK9 [1]; cohort 7 heFH) of the same molecule?
Answer: 57%

Question: What about the “maximum reduction of non-HDL cholesterol versus placebo” value (PCSK9 [1]; cohort 7 heFH) of the same molecule?
Answer: 67%

Question: And the “maximum total cholesterol reduction versus placebo” value (PCSK9 [1]; cohort 7 heFH)?
Answer: 47%

Question: What about the “mean reduction in LDL-C vs placebo” value (PCSK9 [1]; cohort 7 heFH, 140 mg SC Q2W 3 times, week 6) of the same molecule?
Answer: 65%

Question: And the “mean reduction in ApoB levels vs placebo” value (PCSK9 [1]; cohort 7 heFH, week 6)?
Answer: up to 47%

Question: What about the “mean reduction in lipoprotein a (Lp(a)) vs placebo” value (PCSK9 [1]; cohort 7 heFH, week 6) of the same molecule?
Answer: 50%

Question: What about the “mean reduction in non-HDL cholesterol vs placebo” value (PCSK9 [1]; cohort 7 heFH, week 6) of the same molecule?
Answer: 61%

Question: What about the “mean reduction in serum PCSK9 values vs placebo” value (PCSK9 [1]; cohort 7 heFH, week 6) of the same molecule?
Answer: 78%

Question: What about the “mean reduction in total cholesterol vs placebo” value (PCSK9 [1]; cohort 7 heFH, week 6) of the same molecule?
Answer: up to 42%

Question: And the “maximum ApoB reduction vs placebo” value (PCSK9 [1]; cohorts 1-5)?
Answer: up to 59%

Question: And the “mean LDL-C reduction vs placebo at maximal reduction” value (PCSK9 [1]; cohorts 1-5, low to moderate statin doses)?
Answer: up to 81%

Question: And the “mean ApoB reduction vs placebo” value (PCSK9 [1]; [4])?
Answer: up to 54%

Question: What about the “mean reduction of PCSK9 levels vs placebo” value (PCSK9 [1]; [4]) of the same molecule?
Answer: up to 94%

Question: And the “mean LDL-C reduction vs placebo at end of dosing interval” value (PCSK9 [1]; cohorts 1-5, week 6 after 3 biweekly SC doses)?
Answer: ≤ 75%

Question: And the “mean LDL-C reduction at end of dosing interval” value (PCSK9 [1]; cohorts 1-5, week 8 after 2 every 4 week SC doses)?
Answer: ≤ 66%

Question: And the “mean Lp(a) reduction vs placebo” value (PCSK9 [1]; cohorts 1-6, end of dosing interval)?
Answer: up to 43%

Question: And the “circulating PCSK9 after treatment” value (PCSK9 [1]; heFH subjects)?
Answer: undetectable

Question: What about the “plasma PCSK9” value (PCSK9 [1]; higher doses) of the same molecule?
Answer: undetectable

Question: What about the “serious AEs” value (PCSK9 [1]; repeated SC doses over 6 weeks) of the same molecule?
Answer: no serious AEs

Question: What about the “decrease in circulating LDL-C vs placebo” value (PCSK9 [1]; repeated SC doses over 6 weeks, low-to-moderate or high-dose statins) of the same molecule?
Answer: up to 81%

Question: And the “LDL-C nadir observed after initial dosing” value (PCSK9 [1]; subjects on stable moderate statin doses, preliminary)?
Answer: ≤ 2 weeks

Question: And the “LS mean percent increase from baseline in HDL-C” value (PCSK9 [2]; [5])?
Answer: 15.39%

Question: What about the “LS mean percent reduction from baseline in LDL-C” value (PCSK9 [2]; [5]) of the same molecule?
Answer: 38.46%

Question: What about the “LS mean percent reduction from baseline in Lp(a)” value (PCSK9 [2]; [5]) of the same molecule?
Answer: 21.69%

Question: And the “LS mean percent reduction from baseline in VLDL-C” value (PCSK9 [2]; [5])?
Answer: 17.16%

Question: And the “LS mean percent reduction from baseline in non-HDL cholesterol” value (PCSK9 [2]; [5])?
Answer: 36.16%

Question: What about the “LS mean percent reduction from baseline in total cholesterol” value (PCSK9 [2]; [5]) of the same molecule?
Answer: 24.82%

Question: And the “LS mean percent reduction from baseline in triglycerides” value (PCSK9 [2]; [5])?
Answer: 17.24%

Question: And the “LS mean percent increase from baseline in HDL-C” value (PCSK9 [2]; 420 mg Q4W SC)?
Answer: 6.77%

Question: What about the “LS mean percent reduction from baseline in LDL-C” value (PCSK9 [2]; 420 mg Q4W SC) of the same molecule?
Answer: 45.68%

Question: What about the “LS mean percent reduction from baseline in Lp(a)” value (PCSK9 [2]; 420 mg Q4W SC) of the same molecule?
Answer: 28.23%

Question: What about the “LS mean percent reduction from baseline in VLDL-C” value (PCSK9 [2]; 420 mg Q4W SC) of the same molecule?
Answer: 18.49%

Question: And the “LS mean percent reduction from baseline in non-HDL cholesterol” value (PCSK9 [2]; 420 mg Q4W SC)?
Answer: 41.81%

Question: What about the “LS mean percent reduction from baseline in total cholesterol” value (PCSK9 [2]; 420 mg Q4W SC) of the same molecule?
Answer: 29.45%

Question: What about the “LS mean percent reduction from baseline in triglycerides” value (PCSK9 [2]; 420 mg Q4W SC) of the same molecule?
Answer: 4.56%

Question: And the “LDL-C returned to levels similar to control animals” value (PCSK9 [3])?
Answer: ≤ 6 days

Question: And the “TC returned to levels similar to control animals” value (PCSK9 [3])?
Answer: ≤ 4 days

Question: And the “maximal LDL-C lowering as compared to control animals” value (PCSK9 [3])?
Answer: 64%

Question: And the “maximal TC lowering as compared to control animals” value (PCSK9 [3])?
Answer: 20%

Question: What about the “maximal lowering of LDL-C vs anti-KLH IgG2 control at the same time point (change)” value (PCSK9 [3]) of the same molecule?
Answer: −64%

Question: What about the “serum HDL-C vs anti-KLH IgG2 control” value (PCSK9 [3]) of the same molecule?
Answer: statistically significant change in HDL-C at a single time point (day 18 following injection); also recorded: lowered HDL-C at a single time point, 18 days after injection

Question: What about the “time of maximal LDL-C lowering after injection” value (PCSK9 [3]) of the same molecule?
Answer: 3 days

Question: And the “time of maximal TC lowering after injection” value (PCSK9 [3])?
Answer: 3 days

Question: And the “triglycerides levels vs anti-KLH IgG2 control” value (PCSK9 [3])?
Answer: No statistically significant changes

Question: What about the “serum ApoB vs anti-KLH IgG2 control” value (PCSK9 [3]; days 3, 6, 15, 24 and 33) of the same molecule?
Answer: statistically significant lower ApoB levels at day 3 only
